Experimental data reported in paper PMC7461980, “High-Level Production of Recombinant Snowdrop Lectin in Sugarcane and Energy Cane” (Frontiers in Bioengineering and Biotechnology, 2020).
“And” between values parts separate entries of the source, which are not always exact repeats. Equal entries are not always repeated.

How the values were obtained:
P30617 = test: SEC; TSKgel G3000SW xL, HPLC; 50 mM sodium phosphate, 0.3 M NaCl, pH 7.0; non-reducing conditions; 1.0 mL/min; absorbance at 220 and 280 nm; mass standards 6.5-675 kDa
[1] = biological target: the molecule itself; test: as above
[2] = biological target: the molecule itself; test: MALDI-TOF MS; non-reducing conditions; sinapinic acid matrix; linear delayed positive ion mode; mass range 4,500-50,000 Da

B1: sugarcane recombinant GNA (Galanthus nivalis agglutinin, snowdrop lectin LECGNA2) (natural protein, UniProt P30617 20-128, looked up)
chain: DNILYSGETLSTGEFLNYGSFVFIMQEDCNLVLYDVDKPIWATNTGGLSRSCFLSMQTDGNLVVYNPSNKPIWASNTGGQNGNYVCILQKDRNVVIYGTDRWATG
notes: Galanthus nivalis L. (snowdrop) lectin LECGNA2, expressed from the full-length cDNA (570 bp); the purified product is a band corresponding to mature GNA (about 12.0 kDa); The exact C-terminal end of the processed protein in sugarcane is not determined; native GNA 12,054.41 Da theoretical; also called sugarcane GNA
purity (relative peak abundance) of the tetramer (P30617): The purities of the recombinant GNA monomer and tetramer were 65.5% and 24%, respectively
stoichiometry N [1]: 4
stoichiometry N [2]: 2 and 3

B2: recombinant GNA109 (G. nivalis lectin LECGNA2 with four additional amino acids, Thr106 His107 Thr108 Gly109, at the C-terminus of the mature protein) (natural protein, Galanthus nivalis)
chain: DNILYSGETLSTGEFLNYGSFVFIMQEDCNLVLYDVDKPIWATNTGGLSRSCFLSMQTDGNLVVYNPSNKPIWASNTGGQNGNYVCILQKDRNVVIYGTDRWATGTHTG
notes: numbers count on: the mature protein; four additional amino acids Thr106 His107 Thr108 Gly109 at the C-terminus of the mature protein; Theoretical mass printed: 12,051.42 Da; source: synthesized (GenScript); purified using immobilized mannose
stoichiometry N [2]: 2 and 3
